Measurements reported in PMC11783875.

Tests used:
[1] = target: E69QE173Q-PsbS (Arabidopsis thaliana); experiment: cross-linking; isolated thylakoids (60 ug Chl) in the light state (700 umol photons m^-2 s^-1); 0.1 mM DTSSP for 1 min in reaction buffer pH 8.0; SDS-PAGE and western blot with PsbS antibody; densitometry of dimer against total PsbS
[2] = target: E69QE173Q-PsbS (Arabidopsis thaliana); experiment: cross-linking; isolated thylakoids (60 ug Chl) in the dark-adapted state; 0.1 mM DTSSP for 1 min in reaction buffer pH 8.0; SDS-PAGE and western blot with PsbS antibody; densitometry of dimer against total PsbS
[3] = target: E69QE173Q-PsbS (Arabidopsis thaliana); experiment: cross-linking; isolated thylakoids (60 ug Chl) in the recovery-2 state (darkness after illumination); 0.1 mM DTSSP for 1 min in reaction buffer pH 8.0; SDS-PAGE and western blot with PsbS antibody; densitometry of dimer against total PsbS
[4] = target: E69QE173Q-PsbS (Arabidopsis thaliana); experiment: cross-linking; isolated thylakoids (60 ug Chl) in the recovery-1 state (darkness after illumination); 0.1 mM DTSSP for 1 min in reaction buffer pH 8.0; SDS-PAGE and western blot with PsbS antibody; densitometry of dimer against total PsbS
[5] = target: H3-PsbS (PsbS with the H3 motif I74, Y75, E76 deleted) (Arabidopsis thaliana) (UniProt Q9XF91); experiment: cross-linking; isolated thylakoids (60 ug Chl) in the light state (700 umol photons m^-2 s^-1); 0.1 mM DTSSP for 1 min in reaction buffer pH 8.0; SDS-PAGE and western blot with PsbS antibody; densitometry of dimer against total PsbS
[6] = target: H3-PsbS (PsbS with the H3 motif I74, Y75, E76 deleted) (Arabidopsis thaliana) (UniProt Q9XF91); experiment: cross-linking; isolated thylakoids (60 ug Chl) in the recovery-2 state (darkness after illumination); 0.1 mM DTSSP for 1 min in reaction buffer pH 8.0; SDS-PAGE and western blot with PsbS antibody; densitometry of dimer against total PsbS
[7] = target: T1, PsbS protein (wild type, Arabidopsis thaliana) (Arabidopsis thaliana (endogenous in wild-type thylakoids)), Q9XF91; experiment: as above; settings: remark: other sources report otherwise
T1 chain: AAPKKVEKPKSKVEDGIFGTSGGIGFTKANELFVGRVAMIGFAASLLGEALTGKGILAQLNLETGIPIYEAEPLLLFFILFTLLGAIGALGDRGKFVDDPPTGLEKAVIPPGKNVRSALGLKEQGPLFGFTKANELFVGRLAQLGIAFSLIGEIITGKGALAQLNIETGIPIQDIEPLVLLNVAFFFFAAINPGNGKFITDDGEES

[8] = target: T1, PsbS protein (wild type, Arabidopsis …); experiment: cross-linking; isolated thylakoids (60 ug Chl) in the light state (700 umol photons m^-2 s^-1); 0.1 mM DTSSP for 1 min in reaction buffer pH 8.0; SDS-PAGE and western blot with PsbS antibody; densitometry of dimer against total PsbS; settings: remark: other sources report otherwise
[9] = target: T1, PsbS protein (wild type, Arabidopsis …); experiment: cross-linking; isolated thylakoids (60 ug Chl) in the recovery-1 state (darkness after illumination); 0.1 mM DTSSP for 1 min in reaction buffer pH 8.0; SDS-PAGE and western blot with PsbS antibody; densitometry of dimer against total PsbS; settings: remark: other sources report otherwise
[10] = target: T1, PsbS protein (wild type, Arabidopsis …); experiment: cross-linking; isolated thylakoids (60 ug Chl) in the dark-adapted state; 0.1 mM DTSSP for 1 min in reaction buffer pH 8.0; SDS-PAGE and western blot with PsbS antibody; densitometry of dimer against total PsbS; settings: remark: other sources report otherwise

Molecule: E69QE173Q-PsbS (natural protein)
- cross-linked PsbS dimer content relative to total PsbS [1]: 18.6%
- cross-linked PsbS dimer content relative to total PsbS [2]: 21.7%
- cross-linked PsbS dimer content relative to total PsbS [3]: 25.6%
- cross-linked PsbS dimer content relative to total PsbS [4]: 21.4%

Molecule: H3-PsbS (PsbS with the H3 motif I74, Y75, E76 deleted) (from UniProt Q9XF91 60-265) (natural protein)
- dimer-to-monomer transition, percent lower than the WT (% lower than WT) [5]: 50.8
- total recovery to PsbS dimers, percent of the WT level (% of the WT level) [6]: 62.6

B1: PsbS protein (wild type, Arabidopsis thaliana), Q9XF91 60-265 (natural protein)
chain: AAPKKVEKPKSKVEDGIFGTSGGIGFTKANELFVGRVAMIGFAASLLGEALTGKGILAQLNLETGIPIYEAEPLLLFFILFTLLGAIGALGDRGKFVDDPPTGLEKAVIPPGKNVRSALGLKEQGPLFGFTKANELFVGRLAQLGIAFSLIGEIITGKGALAQLNIETGIPIQDIEPLVLLNVAFFFFAAINPGNGKFITDDGEES
- cross-linked PsbS dimer content relative to total PsbS [7]: 50.4%
- cross-linked PsbS dimer content relative to total PsbS [8]: 31.7%
- cross-linked PsbS dimer content relative to total PsbS [9]: 39.5%
- cross-linked PsbS dimer content relative to total PsbS [10]: 44.9%
